{"source": "patent US20180155451A1", "about": "(published 2018)", "binders": {"B1": {"name": "GpH7-A5/GpH7-B3 variant I336_18N/GpL16-k0 (antibody, human IgG1, kappa)", "heavy 1": "not shown", "heavy 2": "not shown", "light": "DIVMTQSPLSLPVTPGEPASISCQASESLVHSNRNTYLHWYLQKPGQSPQLLIYKVSNRFSGVPDRFSGSGSGTDFTLKISRVEAEDVGVYYCSQNTHVPPTFGQGTKVEIERTVAAPSVFIFPPSDEQLKSGTASVVCLLNNFYPREAKVQWKVDNALQSGNSQESVTEQDSKDSTYSLSSTLTLSKADYEKHKVYACEVTHQGLSSPVTKSFNRGEC", "notes": "heterodimerized; also called He Ab I336_18N"}, "B2": {"name": "GpH7-A5/GpH7-B3 variant K326_12R/GpL16-k0 (antibody, human IgG1, kappa)", "heavy 1": "not shown", "heavy 2": "not shown", "light": "B1 light", "notes": "heterodimerized; also called He Ab K326_12R"}, "B3": {"name": "GpH7-A5/GpH7-B3 variant K326_14T/GpL16-k0 (antibody, human IgG1, kappa)", "heavy 1": "not shown", "heavy 2": "not shown", "light": "B1 light", "notes": "heterodimerized; also called He Ab K326_14T"}, "B4": {"name": "GpH7-A5/GpH7-B3 variant K326_15Y/GpL16-k0 (antibody, human IgG1, kappa)", "heavy 1": "not shown", "heavy 2": "not shown", "light": "B1 light", "notes": "heterodimerized; also called He Ab K326_15Y"}, "B5": {"name": "GpH7-A5/GpH7-B3 variant K326_16H/GpL16-k0 (antibody, human IgG1, kappa)", "heavy 1": "not shown", "heavy 2": "not shown", "light": "B1 light", "notes": "heterodimerized; also called He Ab K326_16H"}, "B6": {"name": "GpH7-A5/GpH7-B3 variant K326_18N/GpL16-k0 (antibody, human IgG1, kappa)", "heavy 1": "not shown", "heavy 2": "not shown", "light": "B1 light", "notes": "heterodimerized; also called He Ab K326_18N"}, "B7": {"name": "GpH7-A5/GpH7-B3 variant K334_06M/GpL16-k0 (antibody, human IgG1, kappa)", "heavy 1": "not shown", "heavy 2": "not shown", "light": "B1 light", "notes": "heterodimerized; also called He Ab K334_06M"}, "B8": {"name": "GpH7-A5/GpH7-B3 variant K334_10E/GpL16-k0 (antibody, human IgG1, kappa)", "heavy 1": "not shown", "heavy 2": "not shown", "light": "B1 light", "notes": "heterodimerized; also called He Ab K334_10E"}, "B9": {"name": "GpH7-A5/GpH7-B3 variant K334_12R/GpL16-k0 (antibody, human IgG1, kappa)", "heavy 1": "not shown", "heavy 2": "not shown", "light": "B1 light", "notes": "heterodimerized; also called He Ab K334_12R"}, "B10": {"name": "GpH7-A5/GpH7-B3 variant K334_20W/GpL16-k0 (antibody, human IgG1, kappa)", "heavy 1": "not shown", "heavy 2": "not shown", "light": "B1 light", "notes": "heterodimerized; also called He Ab K334_20W"}, "B11": {"name": "GpH7-A5/GpH7-B3 variant L234_03V/GpL16-k0 (antibody, human IgG1, kappa)", "heavy 1": "not shown", "heavy 2": "not shown", "light": "B1 light", "notes": "heterodimerized; also called He Ab L234_03V"}, "B12": {"name": "GpH7-A5/GpH7-B3 variant L234_04F/GpL16-k0 (antibody, human IgG1, kappa)", "heavy 1": "not shown", "heavy 2": "not shown", "light": "B1 light", "notes": "heterodimerized; also called He Ab L234_04F"}, "B13": {"name": "GpH7-A5/GpH7-B3 variant L234_06M/GpL16-k0 (antibody, human IgG1, kappa)", "heavy 1": "not shown", "heavy 2": "not shown", "light": "B1 light", "notes": "heterodimerized; also called He Ab L234_06M"}, "B14": {"name": "GpH7-A5/GpH7-B3 variant L234_07I/GpL16-k0 (antibody, human IgG1, kappa)", "heavy 1": "not shown", "heavy 2": "not shown", "light": "B1 light", "notes": "heterodimerized; also called He Ab L234_07I"}, "B15": {"name": "GpH7-A5/GpH7-B3 variant L234_10E/GpL16-k0 (antibody, human IgG1, kappa)", "heavy 1": "not shown", "heavy 2": "not shown", "light": "B1 light", "notes": "heterodimerized; also called He Ab L234_10E; GpH7-A5/GpH7-B16/GpL16-k0"}, "B16": {"name": "GpH7-A5/GpH7-B3 variant L234_15Y/GpL16-k0 (antibody, human IgG1, kappa)", "heavy 1": "not shown", "heavy 2": "not shown", "light": "B1 light", "notes": "heterodimerized; also called He Ab L234_15Y; GpH7-A5/GpH7-B3-01-15Y/GpL16-k0"}, "B17": {"name": "GpH7-A5/GpH7-B3 variant L328_03V/GpL16-k0 (antibody, human IgG1, kappa)", "heavy 1": "not shown", "heavy 2": "not shown", "light": "B1 light", "notes": "heterodimerized; also called He Ab L328_03V"}, "B18": {"name": "GpH7-A5/GpH7-B3 variant L328_10E/GpL16-k0 (antibody, human IgG1, kappa)", "heavy 1": "not shown", "heavy 2": "not shown", "light": "B1 light", "notes": "heterodimerized; also called He Ab L328_10E"}, "B19": {"name": "GpH7-A5/GpH7-B3 variant L328_14T/GpL16-k0 (antibody, human IgG1, kappa)", "heavy 1": "not shown", "heavy 2": "not shown", "light": "B1 light", "notes": "heterodimerized; also called He Ab L328_14T"}, "B20": {"name": "GpH7-A5/GpH7-B3 variant L328_19Q/GpL16-k0 (antibody, human IgG1, kappa)", "heavy 1": "not shown", "heavy 2": "not shown", "light": "B1 light", "notes": "heterodimerized; also called He Ab L328_19Q"}, "B21": {"name": "GpH7-A5/GpH7-B3 variant L328_20W/GpL16-k0 (antibody, human IgG1, kappa)", "heavy 1": "not shown", "heavy 2": "not shown", "light": "B1 light", "notes": "heterodimerized; also called He Ab L328_20W"}, "B22": {"name": "GpH7-A5/GpH7-B3 variant P238_03V/GpL16-k0 (antibody, human IgG1, kappa)", "heavy 1": "not shown", "heavy 2": "not shown", "light": "B1 light", "notes": "heterodimerized; also called He Ab P238_03V"}, "B23": {"name": "GpH7-A5/GpH7-B3 variant P238_04F/GpL16-k0 (antibody, human IgG1, kappa)", "heavy 1": "not shown", "heavy 2": "not shown", "light": "B1 light", "notes": "heterodimerized; also called He Ab P238_04F"}, "B24": {"name": "GpH7-A5/GpH7-B3 variant P238_06M/GpL16-k0 (antibody, human IgG1, kappa)", "heavy 1": "not shown", "heavy 2": "not shown", "light": "B1 light", "notes": "heterodimerized; also called He Ab P238_06M"}, "B25": {"name": "GpH7-A5/GpH7-B3 variant P238_08L/GpL16-k0 (antibody, human IgG1, kappa)", "heavy 1": "not shown", "heavy 2": "not shown", "light": "B1 light", "notes": "heterodimerized; also called He Ab P238_08L"}, "B26": {"name": "GpH7-A5/GpH7-B3 variant P238_10E/GpL16-k0 (antibody, human IgG1, kappa)", "heavy 1": "not shown", "heavy 2": "not shown", "light": "B1 light", "notes": "heterodimerized; also called He Ab P238_10E"}, "B27": {"name": "GpH7-A5/GpH7-B3 variant P238_15Y/GpL16-k0 (antibody, human IgG1, kappa)", "heavy 1": "not shown", "heavy 2": "not shown", "light": "B1 light", "notes": "heterodimerized; also called He Ab P238_15Y"}, "B28": {"name": "GpH7-A5/GpH7-B3 variant P271_02A/GpL16-k0 (antibody, human IgG1, kappa)", "heavy 1": "not shown", "heavy 2": "not shown", "light": "B1 light", "notes": "heterodimerized; also called He Ab P271_02A"}, "B29": {"name": "GpH7-A5/GpH7-B3 variant P271_03V/GpL16-k0 (antibody, human IgG1, kappa)", "heavy 1": "not shown", "heavy 2": "not shown", "light": "B1 light", "notes": "heterodimerized; also called He Ab P271_03V"}}}
{"molecular_target": "T1, FcγRIa (human, UniProt P12314 16-292)", "T1 construct": "extracellular domain; also called FcgRI; CD64", "T1 sequence (P12314 16-292)": "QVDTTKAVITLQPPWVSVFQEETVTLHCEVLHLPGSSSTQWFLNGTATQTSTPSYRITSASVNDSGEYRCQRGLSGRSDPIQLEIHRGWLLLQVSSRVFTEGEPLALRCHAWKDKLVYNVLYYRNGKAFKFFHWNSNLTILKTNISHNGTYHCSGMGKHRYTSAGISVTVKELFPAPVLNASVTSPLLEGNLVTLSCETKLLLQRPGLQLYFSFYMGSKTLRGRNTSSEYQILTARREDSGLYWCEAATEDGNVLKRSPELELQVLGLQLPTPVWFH", "experiment": "SPR; vs GpH7-A5/GpH7-B3/GpL16-k0=100"}
{"binder": "B1", "He/Con_1a": "108 % of control"}
{"binder": "B2", "He/Con_1a": "100 % of control"}
{"binder": "B3", "He/Con_1a": "104 % of control"}
{"binder": "B4", "He/Con_1a": "106 % of control"}
{"binder": "B5", "He/Con_1a": "103 % of control"}
{"binder": "B6", "He/Con_1a": "105 % of control"}
{"binder": "B7", "He/Con_1a": "105 % of control"}
{"binder": "B8", "He/Con_1a": "110 % of control"}
{"binder": "B9", "He/Con_1a": "104 % of control"}
{"binder": "B10", "He/Con_1a": "106 % of control"}
{"binder": "B11", "He/Con_1a": "104 % of control"}
{"binder": "B12", "He/Con_1a": "101 % of control"}
{"binder": "B13", "He/Con_1a": "104 % of control"}
{"binder": "B14", "He/Con_1a": "103 % of control"}
{"binder": "B15", "He/Con_1a": "100 % of control"}
{"binder": "B16", "He/Con_1a": "100 % of control"}
{"binder": "B17", "He/Con_1a": "101 % of control"}
{"binder": "B18", "He/Con_1a": "101 % of control"}
{"binder": "B19", "He/Con_1a": "100 % of control"}
{"binder": "B20", "He/Con_1a": "101 % of control"}
{"binder": "B21", "He/Con_1a": "103 % of control"}
{"binder": "B22", "He/Con_1a": "100 % of control"}
{"binder": "B23", "He/Con_1a": "101 % of control"}
{"binder": "B24", "He/Con_1a": "102 % of control"}
{"binder": "B25", "He/Con_1a": "101 % of control"}
{"binder": "B26", "He/Con_1a": "102 % of control"}
{"binder": "B27", "He/Con_1a": "101 % of control"}
{"binder": "B28", "He/Con_1a": "104 % of control"}
{"binder": "B29", "He/Con_1a": "102 % of control"}
